Bridges are numbered along the chain shown (N, C = ends). [ ]: non-standard residue; d: D form. Aph(Hor) = 4-amino-phenylalanine(L-hydroorotic acid); dPhe(4-NHCONH2) = NC(=O)Nc1ccc(C[C@@H](N)C(=O)O)cc1; Cpa = not defined here; Ahx = NCCCCCC(=O)O
Molecular target: somatostatin receptor type 2 (SST2) (Homo sapiens, UniProt P30874)
Experiment: saturation binding of radioligand on HEK-SST2 cell membranes

somatostatin receptor type 2 (SST2), sequence (P30874 whole entry): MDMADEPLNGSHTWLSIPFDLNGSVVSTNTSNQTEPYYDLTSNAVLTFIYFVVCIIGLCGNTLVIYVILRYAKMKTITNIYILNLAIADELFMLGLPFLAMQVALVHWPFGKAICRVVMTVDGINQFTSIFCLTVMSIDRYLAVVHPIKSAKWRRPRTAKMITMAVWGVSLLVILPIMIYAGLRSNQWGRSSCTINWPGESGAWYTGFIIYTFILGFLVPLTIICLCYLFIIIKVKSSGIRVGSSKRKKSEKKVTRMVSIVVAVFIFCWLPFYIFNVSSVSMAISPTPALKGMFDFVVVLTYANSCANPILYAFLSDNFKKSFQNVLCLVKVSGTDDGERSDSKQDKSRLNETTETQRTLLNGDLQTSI

Row | Kd [nM] | Binder
1 | 1.6 | {(99mTc)Tc‑HYNIC/EDDA-Ahx-Cpa}-[dC]Y[dW]KTC[dY]-NH2 (disulfide 1-6 (inferred); reading uncertain; also: 99mTc complex, EDDA coligand) [[99mTc]Tc-HYNIC-Ahx-SS01]
2 | 0.85 | {(99mTc)Tc‑HYNIC/EDDA-Ahx-Cpa}-[dC][Aph(Hor)][dPhe(4-NHCONH2)]KTC[dY]-NH2 (disulfide 1-6 (inferred); reading uncertain; also: 99mTc complex, EDDA coligand, printed as Cpa-c(dCys-Aph(Hor)-dAph(Cbm)-Lys-Thr-Cys)-dTyr-NH2) [[99mTc]Tc-HYNIC-Ahx-JR11]
3 | 0.92 | {(99mTc)Tc‑N4-Cpa}-[dC]Y[dW]KTC[dY]-NH2 (disulfide 1-6 (inferred); reading uncertain; also: 99mTc complex) [[99mTc]Tc-N4-SS01]
4 | 0.6 | {(99mTc)Tc‑N4-Cpa}-[dC][Aph(Hor)][dPhe(4-NHCONH2)]KTC[dY]-NH2 (disulfide 1-6 (inferred); reading uncertain; also: 99mTc complex, printed as Cpa-c(dCys-Aph(Hor)-dAph(Cbm)-Lys-Thr-Cys)-dTyr-NH2) [[99mTc]Tc-N4-JR11]

Source: publication PMC8065591 (2021)
